Measurements reported in US11786578B2, “Modified relaxin polypeptides and their uses” (AMBRX, INC., priority 2010, dated 2023).
Like-named read-outs stand apart in the source and are kept apart here.

What was measured:
[1] = in vivo; settings: for Mean Conc.: male SD rats
Text: This example evaluates the pharmacokinetic properties of wild-type (WT) Relaxin compound following a single subcutaneous injection in SD rats.
SD Rats were received from Charles River Laboratories (CRL) at approximately […] of age (approximately 280 g at study start). The animals were received having been jugular vein catheterized at CRL. Animals then acclimated for 3 days prior to being placed on study.
Animals received a single subcutaneous injection on day 1 and PK samples were collected over the subsequent 12 hours. Blood samples were taken from animals treated with WT rhRelaxin for analysis of serum concentration according to the following sampling schedule (sampling times are approximate): Day 1: pre-dose, 0.33, 0.66, 1, 1.5, 2, 3, 4, 5, 6, 9 and 12 hours post-dose.
Compound concentrations were measured using a bridging ECLA based on an assay which was developed at Ambrx. Concentrations were calculated using a standard curve generated from the corresponding dosed compound and reported in an excel spreadsheet format (see appendix). Pharmacokinetic parameters were estimated using the modeling program WinNonlin (Pharsight, version 5.1). Noncompartmental analysis for individual animal data with linear-up/log-down trapezoidal integration was used, and concentration data was uniformly weighted.
Concentration versus time curves were evaluated by non-compartmental analysis (Pharsight, version 4.1). N=5 rats per group, terminal HL, terminal half-life; Cmax, maximum serum concentration measured; Tmax, time at which Cmax occurred: AUCinf, area under the concentration-time curve for all serum sample/timepoints extrapolated to infinity; Cl, apparent total serum clearance; Vz, apparent volume of distribution during terminal phase. Numbers are mean with SD in parentheses.

[2] = IV; cited from earlier work
[3] = biological target: T1, human RXFP3 (Homo sapiens, UniProt Q9NSD7); assay: Inhibition of forskolin-induced cAMP in human RXFP3/CHO-K1 stable line; type: cell-based; settings: CHO-K1 stable line
T1 sequence (Q9NSD7 1-469): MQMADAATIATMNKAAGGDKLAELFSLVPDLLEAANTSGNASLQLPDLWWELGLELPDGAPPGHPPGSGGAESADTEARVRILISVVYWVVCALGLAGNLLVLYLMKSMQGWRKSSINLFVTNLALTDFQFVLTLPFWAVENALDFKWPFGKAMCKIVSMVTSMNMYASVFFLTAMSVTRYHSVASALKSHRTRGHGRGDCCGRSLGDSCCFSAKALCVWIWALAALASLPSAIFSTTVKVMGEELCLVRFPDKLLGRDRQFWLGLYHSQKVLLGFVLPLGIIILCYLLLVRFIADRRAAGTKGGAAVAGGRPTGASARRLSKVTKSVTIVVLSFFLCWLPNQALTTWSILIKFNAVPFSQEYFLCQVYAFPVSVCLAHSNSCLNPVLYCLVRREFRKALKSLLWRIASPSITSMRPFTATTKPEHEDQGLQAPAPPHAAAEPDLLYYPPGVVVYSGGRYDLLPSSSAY
Text: (§1) The RXFP cDNAs, RXFP family members, as well as species orthologs, were obtained from commercially available cDNA clones or amplified from tissue RNAs as follows. Human RXFP1: A cDNA clone was obtained from OpenBiosystems (MHS4426-99239031. Human RXFP2: A cDNA clone for transcript variant 1 was obtained from OpenBiosystems (OHS4559-99620528). Cynomolgus monkey RXFP1: The cDNA was cloned out of Mauritian cyno brain RNA by RT-PCR using the following primers: forward: 5′-[…]-3′ (SEQ ID NO: 37); reverse: 5′-[…]-3′ (SEQ ID NO: 38). Dog RXFP1: The cDNA was cloned out of dog brain RNA by RT-PCR using the following primers: forward: 5′-[…]-3′ (SEQ ID NO: 39); reverse: 5′-[…]-3′ (SEQ ID NO: 40). Rat RXFP1: The cDNA was cloned out of Sprague Dawley rat brain RNA by RT-PCR using the following primers: forward: 5′-[…]-3′ (SEQ ID NO: 41); reverse: 5′-[…]-3 (SEQ ID NO: 42)′. Human RXFP3: A Gateway entry clone in vector pDONR221 was obtained from Invitrogen (IOH28381). Human RXFP4: A Gateway entry clone in vector pDONR201 was obtained. Mouse RXFP1: A Gateway entry clone in vector pDONR223 was obtained from OpenBiosystems (OMM4760-101549000). Using standard procedures (Gateway LR recombination), the RXFP entry clones were transferred into expression vector pEF-DEST51 (Invitrogen). In contrast to the all other RXFP clones, human RXFP4 was transferred into pcDNA3.1 (Invitrogen). […]

[4] = biological target: T2, human RXFP4 (Homo sapiens, UniProt Q8TDU9); assay: Inhibition of forskolin-induced cAMP in human RXFP4/CHO-K1 stable line; type: cell-based; settings: CHO-K1 stable line, inhibition of forskolin-induced cAMP
T2 construct: expressed in transfected cells
T2 sequence (Q8TDU9 whole entry): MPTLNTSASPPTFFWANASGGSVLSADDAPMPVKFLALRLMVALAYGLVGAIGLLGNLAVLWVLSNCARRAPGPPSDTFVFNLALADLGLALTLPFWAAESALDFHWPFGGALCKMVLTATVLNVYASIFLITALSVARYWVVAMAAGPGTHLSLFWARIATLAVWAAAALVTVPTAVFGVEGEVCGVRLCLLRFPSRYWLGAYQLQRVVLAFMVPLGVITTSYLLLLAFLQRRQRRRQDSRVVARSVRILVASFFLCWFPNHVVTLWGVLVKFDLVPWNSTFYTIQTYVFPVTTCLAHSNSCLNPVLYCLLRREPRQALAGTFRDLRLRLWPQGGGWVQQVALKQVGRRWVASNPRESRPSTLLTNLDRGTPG
Text: The RXFP cDNAs, RXFP family members, as well as species orthologs, were obtained from commercially available cDNA clones or amplified from tissue RNAs as follows. Human RXFP1: A cDNA clone was obtained from OpenBiosystems (MHS4426-99239031. Human RXFP2: A cDNA clone for transcript variant 1 was obtained from OpenBiosystems (OHS4559-99620528). Cynomolgus monkey RXFP1: The cDNA was cloned out of Mauritian cyno brain RNA by RT-PCR using the following primers: forward: 5′-[…]-3′ (SEQ ID NO: 37); reverse: 5′-[…]-3′ (SEQ ID NO: 38). Dog RXFP1: The cDNA was cloned out of dog brain RNA by RT-PCR using the following primers: forward: 5′-[…]-3′ (SEQ ID NO: 39); reverse: 5′-[…]-3′ (SEQ ID NO: 40). Rat RXFP1: The cDNA was cloned out of Sprague Dawley rat brain RNA by RT-PCR using the following primers: forward: 5′-[…]-3′ (SEQ ID NO: 41); reverse: 5′-[…]-3 (SEQ ID NO: 42)′. Human RXFP3: A Gateway entry clone in vector pDONR221 was obtained from Invitrogen (IOH28381). Human RXFP4: A Gateway entry clone in vector pDONR201 was obtained. Mouse RXFP1: A Gateway entry clone in vector pDONR223 was obtained from OpenBiosystems (OMM4760-101549000). Using standard procedures (Gateway LR recombination), the RXFP entry clones were transferred into expression vector pEF-DEST51 (Invitrogen). In contrast to the all other RXFP clones, human RXFP4 was transferred into pcDNA3.1 (Invitrogen). For each construct, the RXFP cDNA, as well as its proper insertion into the expression vector, was verified by DNA sequencing.
CHO-K1 cells (ATCC #CRL-9618) were prepared for stable line generation by propagating at 37° C. with 5% CO2 in F-12 plus GlutaMAX-I medium (GIBCO #31765) supplemented with 10% fetal bovine heat-inactivated serum (Invitrogen #16140), and 1× Antibiotic-Antimycotic (GIBCO #15240-096). CHO-K1 cells were transfected with 12 μg of the appropriate expression construct plasmid using the FuGENE® 6 reagent (Roche #11814443 001) and the protocol provided by the manufacturer. One day post-transfection cells were replated into medium containing 10 μg of Blasticidin S HCl per mL (GIBCO #A11139-02). […]

[5] = system: primary human cardiac fibroblasts (NHCF-V); settings: 1 nM
Experimental: NHCF-V cells were isolated from the ventricle of normal, adult heart tissue. Cells stained positive for smooth muscle α-actin and expressed ≥90% collagen I and ≤10% Von Willebrand factor VIII. Cells at passages 3 through 6 were used for the real-time quantitative reverse transcription-polymerase chain reaction (qRT-PCR) studies. Cells were cultured in FGM™-3 BulletKit™ (Cat. #: CC-4526, Lonza) containing 10% FBS complete medium. At confluence, cells were split and cultured in 6-well plates at a density of 150,000/well for 24 hr in complete medium.
Alter treatment, cells in 6-well plates were harvested or total RN A extraction and qRT-PCR analysis. Total RNA was extracted using the RNeasy Mini Kit (Cat. #: 74106, Qiagen) according to the manufacturer's protocols including the on-column removal of genomic cDNA. Real-time qRT-PCR was performed in a two-step manner; cDNA synthesis and real-time detection were carried out in a PTC-100 Thermal Cycler (MJ Research) and an ABI Prism 7700 Sequence Detection System (Applied Biosystems), respectively. TaqMan Universal PCR Master Mix (Applied Biosystems) was used in subsequent PCR reactions according to the manufacturer's protocols. All qRT-PCR reactions were performed in duplicate. […] Data were analyzed for significance by two-way ANOVA followed by a Bonferroni's multiple comparison test using GraphPad Prism Software, version 5.0.

[6] = biological target: T3, human RXFP2 (Homo sapiens, UniProt Q8WXD0); assay: cAMP assay in human RXFP2/CHO-K1 stable line; type: cell-based; settings: CHO-K1 stable line
T3 sequence (Q8WXD0 whole entry): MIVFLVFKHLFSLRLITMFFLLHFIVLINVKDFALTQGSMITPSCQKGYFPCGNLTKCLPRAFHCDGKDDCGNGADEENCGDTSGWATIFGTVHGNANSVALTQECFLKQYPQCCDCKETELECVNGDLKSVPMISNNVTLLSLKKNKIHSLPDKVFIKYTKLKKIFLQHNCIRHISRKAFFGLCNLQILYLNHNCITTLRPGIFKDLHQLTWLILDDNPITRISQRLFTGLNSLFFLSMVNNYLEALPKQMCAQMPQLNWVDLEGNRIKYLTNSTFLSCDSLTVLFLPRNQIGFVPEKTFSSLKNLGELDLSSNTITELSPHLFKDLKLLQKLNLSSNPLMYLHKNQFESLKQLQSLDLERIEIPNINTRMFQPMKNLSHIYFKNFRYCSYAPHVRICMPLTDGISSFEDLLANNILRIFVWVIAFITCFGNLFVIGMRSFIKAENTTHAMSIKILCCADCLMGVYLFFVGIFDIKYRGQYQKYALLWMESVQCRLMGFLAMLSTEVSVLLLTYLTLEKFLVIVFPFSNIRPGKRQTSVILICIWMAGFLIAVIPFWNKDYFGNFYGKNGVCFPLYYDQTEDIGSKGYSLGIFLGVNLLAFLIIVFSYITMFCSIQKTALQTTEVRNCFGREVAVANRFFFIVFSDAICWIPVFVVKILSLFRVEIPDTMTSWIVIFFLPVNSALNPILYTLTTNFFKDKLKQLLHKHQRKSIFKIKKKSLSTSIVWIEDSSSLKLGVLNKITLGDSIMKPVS
Text: as §1

[7] = biological target: T3, human RXFP2; settings: literature value; read-out: EC50 value reported in the literature, human RXFP2; cited from earlier work
[8] = 0.5 mg/kg SC, SD rats, mean (SD)
[9] = Sprague-Dawley, rat, serum, sc, 0.5 mg/kg

CC[C@H](C)[C@@H]1NC(=O)[C@H](C)NC(=O)[C@H]([C@@H](C)CC)NC(=O)[C@H](CCC(N)=O)NC(=O)[C@H](C)NC(=O)[C@H](CCCNC(=N)N)NC(=O)[C@H](C(C)C)NC(=O)[C@H](CC(C)C)NC(=O)[C@H](CCC(=O)O)NC(=O)[C@H](CCCNC(=N)N)NC(=O)CNC(=O)[C@@H](NC(=O)[C@H](CC(C)C)NC(=O)[C@H](CCCCN)NC(=O)[C@@H](NC(=O)[C@@H](NC(=O)[C@H](CCC(=O)O)NC(=O)[C@H](CCC(=O)O)NC(=O)[C@H](CCSC)NC(=O)[C@H](Cc2c[nH]c3ccccc23)NC(=O)[C@H](CO)NC(=O)[C@@H](N)CC(=O)O)C(C)C)[C@@H](C)CC)CSSC[C@@H]2NC(=O)[C@@H](NC(=O)[C@H](CCCCN)NC(=O)[C@H](CC(N)=O)NC(=O)[C@H](C)NC(=O)[C@H](CC(C)C)NC(=O)[C@H](C)NC(=O)[C@H](CO)NC(=O)[C@H](Cc3ccc(O)cc3)NC(=O)[C@H](CC(C)C)NC(=O)[C@@H](N)CCC(N)=O)CSSC[C@H](NC(=O)CNC(=O)[C@H](C(C)C)NC(=O)[C@H](Cc3c[nH]cn3)NC2=O)C(=O)N[C@@H]([C@@H](C)O)C(=O)N[C@@H](CCCCN)C(=O)N[C@@H](CCCNC(=N)N)C(=O)N[C@@H](CO)C(=O)N[C@@H](CC(C)C)C(=O)N[C@@H](C)C(=O)N[C@@H](CCCNC(=N)N)C(=O)N[C@@H](Cc2ccccc2)C(=O)N[C@H](C(=O)O)CSSC[C@@H](C(=O)NCC(=O)N[C@@H](CCSC)C(=O)N[C@@H](CO)C(=O)N[C@H](C(=O)N[C@@H](Cc2c[nH]c3ccccc23)C(=O)N[C@@H](CO)C(=O)O)[C@@H](C)O)NC1=O [RLX-D-WT]
CL (mL/hr) [1, 8]: 1006 (185) mL/hr
Vz (mL/kg) [1, 8]: 1159 (284) mL/kg
AUC(0-inf) [1, 9]: 509 ng·h/mL
Cmax [1, 9]: 258 ng/mL
MRT [1, 9]: 93.6 min
Tmax [1, 9]: 30 min
half-life ([1]; male, SD, rat, serum, sc, 0.5 mg/kg): 48 min
Mean Conc. ([1]; serum, 0.5 mg/kg SC, 6 hr): BQL
Mean Conc. ([1]; serum, 0.5 mg/kg SC, 9 hr): BQL
Mean Conc. ([1]; serum, 0.5 mg/kg SC, 12 hr): BQL
Mean Conc. ([1]; serum, 0.5 mg/kg SC, pre-dose (PD)): BQL
half-life of intravenously administrated Relaxin 2 in humans [2]: less than 10 minutes

CC[C@H](C)[C@@H]1NC(=O)[C@H](C)NC(=O)[C@H]([C@@H](C)CC)NC(=O)[C@H](CCC(N)=O)NC(=O)[C@H](C)NC(=O)[C@H](CCCNC(=N)N)NC(=O)[C@H](C(C)C)NC(=O)[C@H](CC(C)C)NC(=O)[C@H](CCC(=O)O)NC(=O)[C@H](CCCNC(=N)N)NC(=O)CNC(=O)[C@@H](NC(=O)[C@H](CC(C)C)NC(=O)[C@H](CCCCN)NC(=O)[C@@H](NC(=O)[C@@H](NC(=O)[C@H](CCC(=O)O)NC(=O)[C@H](CCC(=O)O)NC(=O)[C@H](CCSC)NC(=O)[C@H](Cc2c[nH]c3ccccc23)NC(=O)[C@H](CO)NC(=O)[C@@H](N)CC(=O)O)C(C)C)[C@@H](C)CC)CSSC[C@@H]2NC(=O)[C@@H](NC(=O)[C@H](CCCCN)NC(=O)[C@H](CC(N)=O)NC(=O)[C@H](C)NC(=O)[C@H](CC(C)C)NC(=O)[C@H](C)NC(=O)[C@H](CO)NC(=O)[C@H](Cc3ccc(O)cc3)NC(=O)[C@H](CC(C)C)NC(=O)[C@@H](N)CCC(N)=O)CSSC[C@H](NC(=O)CNC(=O)[C@H](C(C)C)NC(=O)[C@H](Cc3c[nH]cn3)NC2=O)C(=O)N[C@@H]([C@@H](C)O)C(=O)N[C@@H](CCCCN)C(=O)N[C@@H](CCCNC(=N)N)C(=O)N[C@@H](CO)C(=O)N[C@@H](CC(C)C)C(=O)N[C@@H](C)C(=O)N[C@@H](CCCNC(=N)N)C(=O)N[C@@H](Cc2ccccc2)C(=O)N[C@H](C(=O)O)CSSC[C@@H](C(=O)NCC(=O)N[C@@H](CCSC)C(=O)N[C@@H](CO)C(=O)N[C@H](C(=O)N[C@@H](Cc2c[nH]c3ccccc23)C(=O)N[C@@H](CO)C(=O)O)[C@@H](C)O)NC1=O [WT-RLX]
cAMP Assay EC50, Human RXFP3 [3]: essentially inactive
cAMP Assay EC50, Human RXFP4 [4]: essentially inactive
Maximal inhibition of collagen type I expression vs TGF-β only treatment [5]: ≥ 70%

B1: INSL3: endogenous ligand for RXFP2 (insulin like 3 protein), R&D Systems (protein, UniProt P51460 21-55; P51460 106-131, looked up)
Insulin-like 3 B chain: LGPAPTPEMREKLCGHHFVRALVRVCGGPRWSTEA
Insulin-like 3 A chain: AAATNPARYCCLSGCTQQDLLTLCPY
EC50 [6]: 0.46 ± 0.04 nM
EC50 [7]: 0.58 nM
